Measured values published in US20030027251.

Molecular target: bacteriophage λ cII protein (UniProt P03042)

Row | Substance | fold induction of β-galactosidase (induced/uninduced), strain SYKD005; reference SYKD004 without plasmid ftsH: 21 | fold induction of β-galactosidase, strain SYKD005 | β-galactosidase level against arabinose used to induce FtsH, strain SYKD007 | fold induction of β-galactosidase (induced/uninduced), strain SYKD006; reference SYKD004 without plasmid ftsH: 21 | fold induction of β-galactosidase, strain SYKD006 | β-galactosidase level against arabinose used to induce FtsH(E415A), strain SYKD008
1 | E. coli FtsH | 10 fold | the fold induction of β-galactosidase was reduced to half when cII was induced with IPTG in the presence of FtsH | in SYKD007 the level of β-galactosidase appeared to be directly correlated to the amount of arabinose used for induction | – | – | –
2 | FtsH(E415A), protease-deficient mutant of FtsH | – | – | – | 26 fold | This reduction in the expression of lacZ was not observed in the presence of FtsH (E415A) | inducing the strain SYKD008 at different concentrations of arabinose did not have any effect on the levels of β-galactosidase being produced
